In the DeepSol protein solubility set:

Experiment: soluble on expression in E. coli; label from the status in PepcDB or PDB records

With “SLNIKDEHIDSVCSLLDQLVGNVSFKNLFTGYGLFHKEETMFAIWQNKKLYLRGEGVLAIQLTKLGCEPFTTNELNKRFVLSQYYALSDQILRSNRLCRKLIILSIKQILEQKLECTLRKLNRLKDLPNLTIKHERALIKVGITNVAMLREIGAENALVELKKSGSGATLDFYWKLVCALQNKNSQMLSQAEKERLLKKLNEVWRKNGLKGYRKLDDE” as the sequence, how does the “soluble on expression in E. coli” value read?
Its value is “not soluble”.

With “SLNSSIDVDSLMRSVSRVFKFIDMPTEGKPTKSTKPYKNGQLSKVMIIENSHVKKDDIWPSGGQMTVKDLTAKYTEGGNAILENISFSISPGQRVGLLGRTGSGKSTLLSAFLRLLNTEGEIQIDGVSWDSITLQQWRKAFGVIPQKVFIFSGTFRKNLDPYEQWSDQEIWKVADEVGLRSVIEQFPGKLDFVLVDGGCVLSHGHKQLMCLARSVLSKAKILLLDEPSAHLDPVTYQIIRRTLKQAFADCTVILCEHRIEAMLECQQFLVIEENKVRQYDSIQKLLNERSLFRQAISPSDRVKLFPHRNSSKCKSKPQIAALKEETEEEVQDTRL” as the sequence, how does the “soluble on expression in E. coli” value read?
The value was “soluble”.

For “SLPKQIDTILINIGQLLTMESSGPRAGKSMQDLHVIEDAVVGIHEQKIVFAGQKGAEAGYEADEIIDCSGRLVTPGLVDPHTHLVFGGSREKEMNLKLQGISYLDILAQGGGILSTVKDTRAASEEELLQKAHFHLQRMLSYGTTTAEVKSGYGLEKETELKQLRVAKKLHESQPVDLVSTFMGAHAIPPEYQNDPDDFLDQMLSLLPEIKEQELASFADIFTETGVFTVSQSRRYLQKAAEAGFGLKIHADEIDPLGGAELAGKLKAVSADHLVGTSDEGIKKLAEAGTIAVLLPGTTFYLGKSTYARARAMIDEGVCVSLATDFNPGSSPTENIQLIMSIAALHLKMTAEEIWHAVTVNAAYAIGKGEEAGQLKAGRSADLVIWQAPNYMYIPYHYGVNHVHQVMKNGTIVVNREGAILG”, which “soluble on expression in E. coli” value is on record?
The value was “soluble”.

Which “soluble on expression in E. coli” value does the source give for “SLRTEQEMMDVILTIAKKEERIRAVYMNGSRTNSNVPKDLFQDYDIVYVVTDIAPFIQEQQWLKKFGEPLMIQEPDQLDAGIGVNRDFSRRYAFLMLFTDGNRIDLTLQTKETMREVYENDTLTVPLLDKDHCLPPIPPPSDSDYHVKEPTEGEFISCTNNFWWCLQNVAKGIWRDELPYAKQMFELTTRASLDEMVNWWIGLENDFQLSTGKLGKYFKKHLPPPYWAMYEATYANSDYEQMWESIFIACDLFRTLAKDVAAACSFTYPETDDRNMTDYLHRVKNLSADATDM” here?
The value was “soluble”.

For “SLSANLVGITGIARRLVQDGSIEEATARTAQNQAMAAKVPLPQWLIDKKLVSAAKLAAANALEFGMPLLDVSAFDHNHNAMNLVDEELLQKHRVLPLFKRGNRLFVGISNPTQTQALDDIKFHTNLVVEPILVDEDQIRRTLEQWQSRKG”, which “soluble on expression in E. coli” value is on record?
The value was “soluble”.

For “SLSRRGIDFLNDWIAEHHPDTLTEDPTAIADLADQLMAAAEKQGLSRRDISEEVGSVFQVILEAMQNRSGGRLYSSRWG”, which “soluble on expression in E. coli” value is on record?
The value was “soluble”.

For “SLSRYLLTDSPAVCVLSGERGVGTTTVLKRILNKTKNAVPIYINCPYDGYAALLPELAQLLGLDAESSEKDILQHLRNSEQCYLIAFDNAQRLVKPKVNGLVELMKLTNLLRRARKSHRVVLSIDKSSWRFIDRARGERLLFDLVTFMP”, which “soluble on expression in E. coli” value is on record?
Its value is “not soluble”.

Which “soluble on expression in E. coli” value does the source give for “SLSSPGDIPAEDFADHVRKNERDSNCGFADEYQQLSLVGHSQSQMVASASENNAKNRYRNVLPYDWSRVPLKPIHEEPGSDYINASFMPGLWSPQEFIATQGPLPQTVGDFWRLVWEQQSHTLVMLTNCMEAGRVKCEHYWPLDSQPCTHGHLRVTLVGEEVMENWTVRELLLLQVEEQKTLSVRQFHYQAWPDHGVPSSPDTLLAFWRMLRQWLDQTMEGGPPIVHCSAGVGRTGTLIALDVLLRQLQSEGLLGPFSFVRKMRESRPLMVQTEAQYVFLHQCICGSSNSQPRPQPRRKSRMRMSKTSSTRTWPPSRPTSWRSK” here?
The value was “soluble”.

Which “soluble on expression in E. coli” value does the source give for “SLTQIQPGVEKFIKDFNDAKKKGEHAYDMTLSYQNFDKGFFNSRFQMQMTFDNGAPDLNIKPGQKVVFDVDVEHGPLPITMLMHGNVIPALAAAKVNLVNNELTQPLFIAAKNKSPVEATLRFAFGGSFSTTLDVAPAEYGKFSFGEGQFTFNGDGSSLSNLDIEGKVEDIVLQLSPMNKVTAKSFTIDSLARLEEKKFPVGESESKFNQINIINHGEDVAQIDAFVAKTRLDRVKDKDYINVNLTYELDKLTKGNQQLGSGEWSLIAESIDPSAVRQFIIQYNIAMQKQLAAHPELANDEVALQEVNAALFKEYLPLLQKSEPTIKQPVRWKNALGELNANLDISIADPAKSSSSTNKDIKSLNFDVKLPLNVVTETAKQLNLSEGMDAEKAQKQADKQISGMMTLGQMFQLITIDNNTASLQLRYTPGKVVFNGQEMSEEEFMSRAGRFVH” here?
Its value is “soluble”.

For “SLTTLKTMTRVQLGAMGEALAVDYLTSMGLRILNRNWRCRYGELDVIACDAATRTVVFVEVKTRTGDGYGGLAHAVTERKVRRLRRLAGLWLADQEERWAAVRIDVIGVRVGPKNSGRTPELTHLQGIG”, which “soluble on expression in E. coli” value is on record?
Its value is “soluble”.

For “SLVCKNALQDLSFLEHLLQVKYAPKTWKEQYLGWDLVQSSVSAQQKLRTQENPSTSFCQQVLADFIGGLNDFHAGVTFFAIESAYLPYTVQKSSDGRFYFVDIMTFSSEIRVGDELLEVDGAPVQDVLATLYGSNHKGTAAEESAALRTLFSRMASLGHKVPSGRTTLKIRRPFGTTREVRVKWRYVPEGVGDLATIAPSIRAPQLQKSMRSFFPKKDDAFHRSSSLFYSPMVPHFWAELRNHYATSGLKSGYNIGSTDGFLPVIGPVIWESEGLFRAYISSVTDGDGKSHKVGFLRIPTYSWQDMEDFDPSGPPPWEEFAKIIQVFSSNTEALIIDQTNNPGGSVLYLYALLSMLTDRPLELPKHRMILTQDEVVDALDWLTLLENVDTNVESRLALGDNMEGYTVDLQVAEYLKSFGRQVLNCWSKGDIELSTPIPLFGFEKIHPHPRVQYSKPICVLINEQDFSCADFFPVVLKDNDRALIVGTRTAGAGGFVFNVQFPNRTGIKTCSLTGSLAVREHGAFIENIGVEPHIDLPFTANDIRYKGYSEYLDKVKKLVCQLINNDGTIILAEDGSFHHHHHH”, which “soluble on expression in E. coli” value is on record?
The value was “soluble”.

Which “soluble on expression in E. coli” value does the source give for “SMDMKQQNFCVVELLPSDPEYNTVASKFNQTCSHFRIEKIERIQNPDLWNSYQAKKKTMDAKNGQTMNEKQLFHGTDAGSVPHVNRNGFNRSYAGKNAVAYGKGTYFAVNANYSANDTYSRPDANGRKHVYYVRVLTGIYTHGNHSLIVPPSKNPQNPTDLYDTVTDNVHHPSLFVAFYDYQAYPEYLITFRK” here?
Its value is “soluble”.

Which “soluble on expression in E. coli” value does the source give for “SMKEPSQQRVKRWGFGMDEALKDPVGREQFLKFLESEFSSENLRFWLAVEDLKKRPIKEVPSRVQEIWQEFLAPGAPSAINLDSKSYDKTTHNVKEPGRYTFEDAQEHIYKLMKSDSYPRFIRSSAYQELLQAKKKSGNSMDRRTS” here?
The value was “soluble”.

Which “soluble on expression in E. coli” value does the source give for “SMQEEDTFRELRIFLRNVTHRLAIDKRFRVFTKPVDPDEVPDYVTVIKQPMDLSSVISKIDLHKYLTVKDYLRDIDLICSNALEYNPDRDPGDRLIRHRACALRDTAYAIIKEELDEDFEQLCEEIQESR” here?
The value was “soluble”.

For “SNAAQISDGKQYITLDKPVAGEPQVLEFFSFYCPHCYQFEEVLHVSDNVKKKLPEGTKMTKYHVEFLGPLGKELTQAWAVAMALGVEDKVTVPLFEAVQKTQTVQSAADIRKVFVDAGVKGEDYDAAWNSFVVKSLVAQQEKAAADLQLQGVPAMFVNGKYQINPQGMDTSSMDVFVQQYADTVKYLVDKK”, which “soluble on expression in E. coli” value is on record?
Its value is “soluble”.

With “SNAMGEAATKSDRQQNQTRLWLNILRLHGLVFGDLNRQLLDETGLSLAKFDAMAQLARNPDGLSMGKLSGALKVTNGNVSGLVNRLIKDGMVVKAMSADDRRSFSAKLTDAGLTTFKQASEAHNRILAELLRAVSDQDMVEASAALRGILESMQTGASLD” as the sequence, how does the “soluble on expression in E. coli” value read?
The value was “soluble”.

Which “soluble on expression in E. coli” value does the source give for “SNAMKLALITDTSAYLPEAIENHEDVYVLDIPIIIDGKTYIEGQNLTLDQYYDKLAASKELPKTSQPSLAELDDLLCQLEKEGYTHVLGLFIAAGISGFWQNIQFLIEEHPNLTIAFPDTKITSAPQGNLVRNALMCSREGMDFDVIVNKIQSQIEKIEGFIVVNDLNHLVKGGRLSNGSAIIGNLLSIKPVLHFNEEGKIVVYEKVRTEKKALKRLAEIVKEMTADGEYDIAIIHSRAQDKAEQLYNLLAKAGLKDDLEIVSFGGVIATHLGEGAVAFGITPKN” here?
The value was “soluble”.

Which “soluble on expression in E. coli” value does the source give for “SNAMKQIIDIENWERKENFNFFRHFQNPQLSITSEVECGGARQRAKAAGQSFFLHYLYAVLRAANEIPEFRYRIDPDGRVVLYDTIDMLSPIKIKENGKFFTTRFPYHNDFDTFYQEARLIIDAIPEDGDPYAAENEEVADGDYGLILLSATPDLYFTSITGTQEKRSGNNYPLLNAGKAIIREGRLVMPIAMTIHHGFIDGHHLSLFYKKVEDFLK” here?
The value was “soluble”.

For “SNAMLDITTITRQNVTSVVGYYSDAKDDYYSKDSSFTSWQGTGAEALGLSGDVESARFKELLVGEIDTFTHMQRHVGDAKKERLGYDLTFSAPKGVSMQALIHGDKTIIEAHEKAVAAAVREAEKLAQARTTRQGKSVTQNTNNLVVATFRHETSRALDPDLHTHAFVMNMTQREDGQWRALKNDELMRNKMHLGDVYKQELALELTKAGYELRYNSKNNTFDMAHFSDEQIRAFSRRSEQIEKGLAAMGLTRETADAQTKSRVSMATREKKTEHSREEIHQEWASRAKTLGIDFDNREWQG”, which “soluble on expression in E. coli” value is on record?
Its value is “soluble”.

For “SNAMNVWQVVGYKHSGKTTLMEKWVAAAVREGWRVGTVKHHGHGGEPARPEGVDSVRHERAGAVATAVEGDGLLQLHLRRPLWRLDDVLALYAPLRLDLVLVEGYKQERHPKVVLVRSEEDWASLQHLANIRAVIAWEPLEGPLAHPVFSLADDDEYIPWLMNEVRTRT”, which “soluble on expression in E. coli” value is on record?
Its value is “soluble”.

With “SNAMSMAYEEYMRQLVVPMRRELTGAGFEELTTAEEVENFMEKAEGTTLVVVNSVCGCAAGLARPAATQAVLQNDKTPDNTVTVFAGQDKEATAKMREYFTGAAPSSPSMALLKGKEVVHFIPRHEIEGHDMEEIMKNLTAAFDAHC” as the sequence, how does the “soluble on expression in E. coli” value read?
The value was “soluble”.

For “SNAVRGFLIVGNKAFTQPFSLNDLPGAGRMDVLCRCTSQALFISHGIRRDVEVYLLLLGPPSPPKSILIKGDEVRRMSPDERNVAGHIKKALAVECGKSWKKVHSGVYVSRKGLEELIEELSEKYSIIYLKEDGVDISNAQLPPNPLFVIGDHEGLTEEQEKVVERYAALKLSLSPLSLLAEQCVVIAHHHLDRLQF”, which “soluble on expression in E. coli” value is on record?
Its value is “soluble”.

Which “soluble on expression in E. coli” value does the source give for “SNAVTATQLAAKATTLYYLHKQAMTDEVSLLLEQALQLEPYNEAALSLIANDHFISFRFQEAIDTWVLLLDSNDPNLDRVTIIESINKAKKLM” here?
The value was “soluble”.

Which “soluble on expression in E. coli” value does the source give for “SNGSSVASTSPSVKCKEDQGLNGHEEKENPFAEYMWMENEEDFNRQVEEELQEQDFLDRCFQEMLDEEDQDWFIPARDLPQAVGHLQQQLNGLSVGDSHESEDILSKSNLNPDAKEFVPGVKY” here?
Its value is “soluble”.

Which “soluble on expression in E. coli” value does the source give for “SNQEKLAKLQAQVRIGGKGTARRKKKVVHRTATADDKKLQSSLKKLAVNNIAGIEEVNMIKDDGTVIHFNNPKVQASLSANTFAITGHAEAKPITEMLPGILSQLGADSLTSLRKLAEQFPRQVLDSKAPKPEDIDEEDDDVPDLVENFDEASKNEAN” here?
Its value is “soluble”.

For “SNSALYNVDAGHRAVIFDRFRGVQDIVVGEGTHFLIPWVQKPIIFDCRSRPRNVPVITGSKDLQNVNITLRILFRPVASQLPRIYTSIGEDYDERVLPSITTEILKSVVARFDAGELITQRELVSRQVSDDLTERAATFGLILDDVSLTHLTFGKEFTEAVEAKQVAQQEAERARFVVEKAEQQKKAAIISAEGDSKAAELIANSLATAGDGLIELRKLEAAEDIAYQLSRSRNITYLPAGQSVLLQLPQ”, which “soluble on expression in E. coli” value is on record?
Its value is “soluble”.
